Assay: label from the status in PepcDB records

Row | Sequence | protein production
1 | MLVVAVVFPVLAFIFLGGVVFYTRKQNKPKNKRAASVEVDENNEDGVKVNNSELKKLTKIKKIKGSKIYLKNGAIRVNLGISSPDFELLTDEEQTSFEDCLMMSALSLNFPVQFHTTLKKIEIKEPAELVEKTMNSSDSLISDNLRDYCSQLYSSYKKLEHEKGIFVRKSFCTVGAYLPDRDEKKVLNELQSRIDNIAGGLSRARMKINLLNSESTAQILADLFNRGKNIKIETLEKDGAFDLYSEGVGQVVEVQEG | failed
2 | MIIMLSEYLEEFKEYLERFKNIDINFSDVLKMSKKFIIWRLKQIFGDSSTIFTNISSEITIFDKIFQMIDYDIDGEVEKRLPKDESRFMIGVRREKEIEIKKEIITNLLDFLLIILLSHTPYFNAFVRKYAEIKKIKVIKKLPNKISVWEFIKIASRSRINDLHLERLDLENGFVDITKIKEIFAKEIIRVELMKLGENIKKRKLPDDSVVKELLNEISDYLKDKVKYEQISGIKALNYKGNIPLEWHPPCIRGILNDILSGGSPSHYARRSFVVYWFCAKFNPNLRPLDKNGNLVNVSATDIASEEEIERFIDELIEMLFKNVEDFDEKKTRYYIMHNIGYKVGHGRLTHCEYCKNWQDDGGKGLSYYCKPDELCKKKFIIHPLDYLCYNINKHLKKERFKKIKKEDKNGDNKLEHHHHHH | not failed
3 | MGKVYKKVELVGTSEEGLEAAIQAALARARKTLRHLDWFEVKEIRGTIGEAGVKEYQVVLEVGFRLEET | not failed
4 | MFIGRNQELTALNKLYQEDSFQFAVIYGRRRIGKTSLINQFLKGKRAIYFTGLEENALENLARFSDAIHAYEDPSYLDGPNFASFEQAFKYLVHLSEKNDRLILVIDEFPYLAKAYPPISSMLQSYIDHYFKQNKLFLILCGSSMPFMEKQVLGYKSPLYGRRTAQFKLKPFSLHDAEEFFPQLNKEEVFELNAITGGIPLYLSLMSPKKSLRENIKDNFLTTSAMLYAEPMSLLNQELREPASYSSIISAIAAGASRQSEISTKTGIASGALSPYLDNLIDLGIVEKRLPVTELDKARSRKTIYAIKDGMFRFWYTFVGKRVSFIERGITEPILDYIIKQLPHFMGPEFEKLSQEYLWSKLFDPDLVPEPFVNLGNWWGPDPKEKKQVEMDIVGFDDQKLNGYFGECKWKNEPISADILETLIYRSILFPTPKKNYYLFSKTGFTDKCQQLAQQVDCHLITFDMM | failed
5 | MPHSSTNITKAVLQGRGLYPISLVTGAMFTEEMYVVLESTTRAETFLTPMELQAKLMEYLTGTEVSLSPDLLALPDVESRAQYLMTTACELQLANGGYLQWYAVRLEKLEHHHHHH | not failed
6 | MKIVSIKIKNYRVFEDIKITNIPSFCVIIGANGTGKSTLFDVFGFLRDALKNNIRQALQIRGGFKEVVTRGKESEDIEIELKFRMEILATERLVTYILIIGQEGKKPVIKREILRYKRGEYGSPFHFLDFHNGQGYAIRNEESFESDEELEREEQKLESADILAIKGLGQFQRFKAANAIRSLIENWHVSDFHISDARGSKAALYAEHLSPTGDNIPIVAQYIYQEHPEIFAEILQRMKQRVPGISNVEAKEIEGGSLILKFQDQAFEDSFVDLYVSDGTIKMFAYLILLFDPKPHPLLCVEEPENQLYPTLLRELAEEFASYAHRGGQVFVSTHSPDFLNAVPLDSIFWLIKIQGVTKVEKAADHEVLRNLIAAGDLPGYLWNQGWFEGVAPLEHHHHHH | failed
7 | MDKYPFLREAGSSFKDRDVTKMSDLIATWDGQDIKGPALIGVPLSKSSISHSGASFAPGTIRQALKHSSAYSAELGEHVVSELLYDLGDIDIHVTDIVKSHHHIFQTMHALLSDHPDWVPLILGGDNSISYSTIKAIAQTKGTTAVIQFDAHHDVRNTEDGGPTNGTPFRRLLDEEIIEGQHLIQLGIREFSNSQAYEAYAKKHNVNIHTMDMIREKGLIPTIKEILPVVQDKTDFIFISVDMDVLDQSHAPGCPAIGPGGLYTDELLEAVKYIAQQPNVAGIEIVEVDPTLDFRDMTSRAAAHVLLHALKGMKLSPFK | not failed
8 | MPFNQNVSLECYNGILSMLLNGAPLADILHALVLKIEDQRLGTHASVLLLSEDGKRVLTGAAPHLPDSYNQVIHGVEIGPEVGSCGTAAYTGQRVIVEDIEHHPYWALYKSFALVHGLRACWSEPIKDTQGKVLGTFAMYYKEIKSPTVADLTLIAEAARLASLAIERSRSLEFQRLEHHHHHH | not failed
9 | MYLPLLMALVVALSSCSNKMGALSSDYFTTTPQVLEAVGGKVPVTINGKFPEKYFKKNAVVEVTPVLKWEGGQVKGQPAVFQGEKVEGNDQTISYKMGGNYTMKTTFDYVPEMAKSELYLEFNAKVGKKTIAIPAVKIADGVISTSELINNTLSSANPALGDDAFQRIIKEAHNANIMFLIQQANIRSSELKTAKEFNKEVANVNDAENKKISNIEISAYASPDGGVKLNTGLAENREGNTTKLINKDLKKAKIEVPVDAKYTAQDWEGFQELVSKSNIQDKELILRVLSMYQDPEQRETEIKNISSVYKTLADEILPQLRRSRLTLNYEIIGKSDEEIANLAATDPKQLNVEEILYAATLTNDPAKKADIYTKASQQFPNDYRAFNNLGKLAYQAGDLDKAQSYVKKAESIKSAPEVNMNLGLIALAKGDKAAAESYLGKAAGAKELNETLGNLYVAQGQYERAVNAFGDTKTNSAALAQILAKDYNKAKNTLAGIATPDAYTDYLMAVLGARTNNTSMLTSSLKSAVAKNPALAKKAATDLEFAKYYTNADFMSIVK | failed
10 | MPSPVEADAKVTMRLRYTKTGAMRYLSHLEMIGLFTRAVGRARLPIRFSQGFHPHPKFSFATALSVGVESWAEYLDMELIPSLTPGEVRDRLNAALPEGMRIVEAVVIPPGTPSLSVLMDKVRYRIILLEEAARDLAARAEAFLARDSFPLRRAKKGRIQEYDLEHHHHHH | failed
11 | MVKTFRQREEDIVRCNRCGFCEEVCPTYKATGEEFSLARGRNRLMRQSMEGKLDLTKEPEINQHIYSCLLCGACVAACPSSVITDTLIKTARAEITRAKGQPFPIRMALRGVLANQRRLTLGAKVLRFYQRSGARWLARHIGFLNLMGSLGKAEGLLPAIPEKTLRVQLPQLLKKPMKPRHKVAYFAGCMINNFFTAVGEATLRVYQENDIEVVVPTSNCCGIPHEAYGDIEMQIKLAKENLDAFSRYEVEAIVTDCASCAHGLHSYAELLQDDPHYGPLAAQLAAKVKDASQYLVEIGFKKEMGPVNATVTYHDPCHAARGLKVKEQPREILKSIPGVKFVEMNESDWCCGGAGSYNVTHYELSRKILARKMDNFKKTGAEYLATSCPACLMQLAHGLDVYRLSGKAIHVMQILDQAYQNRAVRSKAKAG | failed
12 | MTSYPQQPQQTEQYGVQAGEPPLWAPYYGAPIGAAIRRFFKKYTAFSGRASRSEYWWVALALGVIGIVLQILTGILGAAGSTTTSSGTVPGPGAVVGLILIFVFYLAVLIPSIALLVRRLHDGNFSGWLALLGLIPFVGGLAILVFALLPSNPAGQRFDQPTA | failed
13 | MPKEQPLYLQIVDDLEVKIKKSMTENDKLLSERELSDLYGVSRITIRLTLKELELRDLIYKKQGKGTYVSGIKEPATDLSSTYSFTEQMKKMGKTPKTEILSFEQYQVTPYLSGLLELDPDTEVFELERLRIADDMPLMFERSYIPAQPFQGLSIADLKRKALYDIFAKDYQETIRLAEEEFYASIALDYEAGLLGIKKGDPVLHIIRKTYNDKNILIELTFSIARADQFRYRVQHHPNG | failed
14 | MTSSSQRLALLEAVVEQSFNAVLITDANLANGGPLIVYVNPAFCTMTGYTAEELIGLSPRILQGADTDPQVIERLRQCLSERLFFEGSTVNYRADGSPYVVEWKITPVRDDAGQVCNFVSVQQNISPRIRAEREQHLLAQALNAAFDPIIITDRNSTIVFANEAFQLITGYSAPEIIGQNPRMLRSGKHDALFYAQFNESLASGEPFRTTFINKRKDGSLFYAEHSISPLRNVEGAMTHYVSISQDVTTRLGREQKLLEIAHSDTLTGLDNRRAAEHTLERLINTARMAGKPFSFIICDIDHFKSVNDRYGHPAGDSVLKSVAAILKHRIRAFDVAARWGGEEFLILVPDSSLKQAAELAERVRKGVESLEIPEAGPVTISLGVAELSPGETAASLIQRADKVLYQAKRLGRNRVEIAQADDPAY | failed

— a protein production outcome set (Wang et al. 2014)
